Test results from US20230242902A1, “A HIGHLY ERROR-PRONE […] R[…] FOR TARGETED CONTINUOUS EVOLUTION IN VIVO” (The Regents of the University of California, priority 2017, published 2023).
Substitutions are numbered along the chain they refer to. Names and notes keep the numbering of the source.

B1: S831T: TP-DNAP1 variant (protein)
chain: MDYKDKALNDLRNVYADFDSLPLDFRQILIKDRATLLQKEDVEKKILERQEDAKKYAEYLKQSEIPERISLPNIKRHKGVSISFEETSEDMVLEPRPFIFDGLNIRCFRRETIFSLKNKILNMVKESSSFKNVSRQSVSFMYFKIFNKGKVIASTKSVNIYEDKIDERLEDLCNNFDDVLKKIIDVTYGYESLFVSETYSYVIFYAKSIYFPQPRCVNNWGNNIPNILTFDSFKLFTANKNNVSCIKQCSRFLWQKDFNTLEEMIEYKNGNICIVTPQLHINDVRDIKSFNDIRLYSESPIKTFSVIDNTITYLFYFKEHLGVIFNITKSRHDRRVTKFSPLSKFSDVKNITVCFDIESYFDPEKESNQVNIPFICCASIIYNKVIGNIVDFEGRDCVAQMIEYVVDICGELNISSVELIAHNGGGYDFHYILSSMYNPAAIKNILIRNNSFISFNFAHDGVKFSVKDSYSFLLCSLANASKAFLNEETFKKTDFPHHDLKTADDLYKVYKEWSSVNTEINHVVEKEKLLITSEHIVNFTKNDKSKTLIEWSKDYCRNDVLVLSKVWLEFKNAVEDIFNCELVDQTMTLAGLSYKLFQANMPFDVELRHPNKEDYFNMREALIGGRCISVNGIYKDVLCLDVKSLYPASMAFYDQPYGSFKRVSSRPKDELGIYYVRVTPNRNNKSNFFPIRSHNKITYNNFEESTYIAWYTNVDIDIGLSEGHNIEYIPFDSYGNIGYSWSKKGKIFEKYIKDVLYKLKIKYEKQNNKVKRNVIKIIMNSLWGKFAQKWVNFEYFIKSEDDIDFESEEAYKIWDTDFMLIKKIKESTYSTKPIQNGVFTLSWARYHMKSIWDAGAKEGAECIYSDTDSIFVHKEHFKKNAKFMLNGLKVPIIGSEVGQLELECEFDKLLCAGKKQYMGFYTYFQDGKPCIKEKKRFKGIPSNYIIPELYAHLLSGADKEAKIQFLKFRREWGSVKGYIENKTVKAT
B2: I311A: TP-DNAP1 variant (protein)
chain: B1 chain with I311A, T831S
B3: I301E: TP-DNAP1 variant (protein)
chain: B1 chain with I301E, T831S
B4: T310F: TP-DNAP1 variant (protein)
chain: B1 chain with T310F, T831S
B5: F304R: TP-DNAP1 variant (protein)
chain: B1 chain with F304R, T831S
B6: N309C: TP-DNAP1 variant (protein)
chain: B1 chain with N309C, T831S
B7: T310N: TP-DNAP1 variant (protein)
chain: B1 chain with T310N, T831S
B8: T310W: TP-DNAP1 variant (protein)
chain: B1 chain with T310W, T831S
B9: T310D: TP-DNAP1 variant (protein)
chain: B1 chain with T310D, T831S
B10: T303L: TP-DNAP1 variant (protein)
chain: B1 chain with T303L, T831S
B11: N309K, I311G: TP-DNAP1 variant (protein)
chain: B1 chain with N309K, I311G, T831S
B12: I301M: TP-DNAP1 variant (protein)
chain: B1 chain with I301M, T831S
B13: S305N: TP-DNAP1 variant (protein)
chain: B1 chain with S305N, T831S
B14: F304Y: TP-DNAP1 variant (protein)
chain: B1 chain with F304Y, T831S
B15: I301S: TP-DNAP1 variant (protein)
chain: B1 chain with I301S, T831S
B16: K959M: TP-DNAP1 variant (protein)
chain: B1 chain with T831S, K959M
B17: I301L: TP-DNAP1 variant (protein)
chain: B1 chain with I301L, T831S
B18: I301Y: TP-DNAP1 variant (protein)
chain: B1 chain with I301Y, T831S
B19: K959A: TP-DNAP1 variant (protein)
chain: B1 chain with T831S, K959A
B20: E298Y: TP-DNAP1 variant (protein)
chain: B1 chain with E298Y, T831S
B21: E298P: TP-DNAP1 variant (protein)
chain: B1 chain with E298P, T831S
B22: K302A: TP-DNAP1 variant (protein)
chain: B1 chain with K302A, T831S
B23: I311N: TP-DNAP1 variant (protein)
chain: B1 chain with I311N, T831S
B24: I301C: TP-DNAP1 variant (protein)
chain: B1 chain with I301C, T831S
B25: I307L: TP-DNAP1 variant (protein)
chain: B1 chain with I307L, T831S
B26: F304A: TP-DNAP1 variant (protein)
chain: B1 chain with F304A, T831S
B27: T303H: TP-DNAP1 variant (protein, listed as Kluyveromyces lactis)
chain: B1 chain with T303H, T831S
B28: I301V: TP-DNAP1 variant (protein)
chain: B1 chain with I301V, T831S
B29: E298S: TP-DNAP1 variant (protein)
chain: B1 chain with E298S, T831S
B30: T310E: TP-DNAP1 variant (protein)
chain: B1 chain with T310E, T831S
B31: K962Q: TP-DNAP1 variant (protein)
chain: B1 chain with T831S, K962Q
B32: S305G: TP-DNAP1 variant (protein)
chain: B1 chain with S305G, T831S
B33: I301K: TP-DNAP1 variant (protein)
chain: B1 chain with I301K, T831S
B34: T303W: TP-DNAP1 variant (protein)
chain: B1 chain with T303W, T831S
B35: I301A: TP-DNAP1 variant (protein)
chain: B1 chain with I301A, T831S
B36: E298V: TP-DNAP1 variant (protein)
chain: B1 chain with E298V, T831S
B37: D308Q: TP-DNAP1 variant (protein)
chain: B1 chain with D308Q, T831S
B38: T310H: TP-DNAP1 variant (protein)
chain: B1 chain with T310H, T831S
B39: T303M: TP-DNAP1 variant (protein)
chain: B1 chain with T303M, T831S

Each molecule was assayed on p1 (assay: p1 copy number by p1-encoded mKate2 fluorescence). Settings: OR-Y24, measured in triplicate.
Format: cell-based, S. cerevisiae
In short: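 Steps: transform TP-DNAP1 variant into OR-Y24; passage until w.t. p1 displaced; dilute 1:10,000 and grow to saturation in triplicate; measure p1-encoded mKate2 fluorescence; convert to copy number via linear qPCR-based calibration. Four high-copy variants were checked directly by qPCR.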
For B1, the “Mean fold-increase over w.t. (p1 copy number)” value (shortened to “Mean fold-increase”) was 1.71 fold.
For B2, the “Mean fold-increase” value was 2.19 fold.
In the case of B3, the “Mean fold-increase” value is reported as 2.57 fold.
B4 was tested, and the “Mean fold-increase” value was 2.66 fold.
With B5 the “Mean fold-increase” value was 3.49 fold.
With B6 the “Mean fold-increase” value was 2.25 fold.
With B7 the “Mean fold-increase” value was 2.83 fold.
In the case of B8, the “Mean fold-increase” value is reported as 2.48 fold.
For B9, the “Mean fold-increase” value was 2.64 fold.
With B10 the “Mean fold-increase” value was 2.41 fold.
B11 was tested, and the “Mean fold-increase” value was 2.2 fold.
With B12 the “Mean fold-increase” value was 2.76 fold.
With B13 the “Mean fold-increase” value was 2.3 fold.
For B14, the “Mean fold-increase” value was 2.41 fold.
For B15, the “Mean fold-increase” value was 2.29 fold.
In the case of B16, the “Mean fold-increase” value is reported as 2.02 fold.
For B17, the “Mean fold-increase” value was 2.94 fold.
With B18 the “Mean fold-increase” value was 3.28 fold.
With B19 the “Mean fold-increase” value was 1.55 fold.
In the case of B20, the “Mean fold-increase” value is reported as 2.17 fold.
In the case of B21, the “Mean fold-increase” value is reported as 2.57 fold.
With B22 the “Mean fold-increase” value was 1.88 fold.
With B23 the “Mean fold-increase” value was 2.55 fold.
B24 was tested, and the “Mean fold-increase” value was 2.46 fold.
With B25 the “Mean fold-increase” value was 2.76 fold.
For B26, the “Mean fold-increase” value was 2.14 fold.
For B27, the “Mean fold-increase” value was 2.3 fold.
B28 was tested, and the “Mean fold-increase” value was 2.53 fold.
B29 was tested, and the “Mean fold-increase” value was 2.43 fold.
For B30, the “Mean fold-increase” value was 2.37 fold.
With B31 the “Mean fold-increase” value was 1.56 fold.
B32 was tested, and the “Mean fold-increase” value was 2.53 fold.
B33 was tested, and the “Mean fold-increase” value was 2.71 fold.
For B34, the “Mean fold-increase” value was 2.96 fold.
B35 was tested, and the “Mean fold-increase” value was 2.41 fold.
For B36, the “Mean fold-increase” value was 2.64 fold.
B37 was tested, and the “Mean fold-increase” value was 2.15 fold.
B38 was tested, and the “Mean fold-increase” value was 2.57 fold.
For B39, the “Mean fold-increase” value was 2.5 fold.
